Settings in all cases: both partners purified
The target of experiment [1] is T1, HAstV8 capsid spike (Spike 8) fused to a 10x histidine tag (Human astrovirus 8 (HAstV-8), Q9IFX1, UniProt Q9IFX1).
T1 construct: HAstV serotype 8 capsid spike protein, amino acids 429 to 647 of the capsid protein (UniProtKB entry Q9IFX1); A thrombin cleavage site stands between the spike and the C-terminal 10-histidine tag (pET52b); Captured on Anti-Penta-His sensors by the tag; also called His-tagged Spike 8; HAstV serotype 8 capsid spike protein; not shown: His10, C-terminal, kept
T1 sequence (Q9IFX1 429-647, one chain of several): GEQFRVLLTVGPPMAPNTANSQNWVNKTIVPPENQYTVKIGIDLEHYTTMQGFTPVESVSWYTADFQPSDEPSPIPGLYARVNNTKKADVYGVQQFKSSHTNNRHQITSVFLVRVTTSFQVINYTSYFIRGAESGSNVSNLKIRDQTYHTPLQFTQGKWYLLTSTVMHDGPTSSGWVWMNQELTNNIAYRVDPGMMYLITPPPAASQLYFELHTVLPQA
The experiment is described as follows: BLI; His-tagged Spike 8 (0.5 ug/ml) loaded on Anti-Penta-His (HIS1K) biosensors; scFv as analyte in six 1:2 serial dilutions (from 80 nM scFv 3E8 or 20 nM scFv 2D9); PBS pH 7.4, 2% BSA, 0.09% Tween 20; 22 C; global 1:1 fit; mean of triplicate assays. On the technique in general: BLI is a label-free optical method that tracks binding on a fibre tip over time.

Experiment [2] concerns the target T2, HAstV8 capsid spike (Spike 8), purification tag removed by thrombin (human astrovirus serotype 8 (HAstV8), UniProt Q9IFX1).
T2 construct: HAstV serotype 8 capsid spike protein, amino acids 429 to 647 of the capsid protein (UniProtKB entry Q9IFX1); Same construct as m1 after thrombin digestion; residues of the thrombin site may remain at the C-terminus; source: tag removed with thrombin during complex formation; not shown: His10, C-terminal, cleaved
The experiment is described as follows: SEC; 3 molar excess scFv 3E8 with Spike 8 overnight at 4 C, tags removed with thrombin; Superdex 200 in TBS pH 7.2; coeluted at apparent ~105 kDa against gel filtration standards; data not shown. A general note: In gel filtration, larger molecules generally elute earlier.

Experiment [3] has as its target T2, HAstV8 capsid spike (Spike 8), …. The experiment is described as follows: SEC; 3.5 molar excess scFv 2D9 with Spike 8 overnight at 4 C, tags removed with thrombin; Superdex 200 in TBS pH 8.0; coeluted at apparent ~105 kDa against gel filtration standards; data not shown.

T2 sequence (Q9IFX1 429-647): as the sequence (Q9IFX1 429-647, one chain of several) above

B1: scFv 3E8 (single-chain variable fragment of mouse monoclonal antibody 3E8) (scFv, V domains shown)
VH: DVQLQESGPGLVKPSQSLSLTCSVTGYSITSGYYWNWIRQFPGNKLEWMGYISYDGSNNYNPSLKNRISITRDTSKNQFFLKLNSVTTEDTATYYCATFYDGYDYWGQGTTLTVSS
VL: DIVMTQSHKFMSTSVGDRVSITCKASQDVSTAVAWYQQKPGQSPKLLIYWASTRHTGVPDRFTGSGSGTDYTLTISSVQAEDLALYYCQQHYSTPFTFGSGTKLEIK
notes: 3E8 kappa chain variable region; GGS(GGGGS)3 linker; 3E8 heavy chain variable region; A thrombin cleavage site stands between the scFv and the C-terminal Twin Strep-tag; source: CHO-S cells (electroporated), secreted, purified (StrepTrap HP)
Take B1: the affinity in experiment [1], expressed as Kd, was 40 nM.

B2: scFv 3E8, purification tag removed by thrombin (scFv, V domains shown)
VH: DVQLQESGPGLVKPSQSLSLTCSVTGYSITSGYYWNWIRQFPGNKLEWMGYISYDGSNNYNPSLKNRISITRDTSKNQFFLKLNSVTTEDTATYYCATFYDGYDYWGQGTTLTVSS
VL: DIVMTQSHKFMSTSVGDRVSITCKASQDVSTAVAWYQQKPGQSPKLLIYWASTRHTGVPDRFTGSGSGTDYTLTISSVQAEDLALYYCQQHYSTPFTFGSGTKLEIK
notes: 3E8 kappa chain variable region, as in m3; GGS(GGGGS)3 linker; 3E8 heavy chain variable region, as in m3; Same construct as m3 after thrombin digestion; source: CHO-S cells (electroporated), secreted, purified (StrepTrap HP); tag removed with thrombin during complex formation; not shown: Twin Strep-tag, C-terminal, cleaved
Consider B2, for which the “stoichiometry N” value in experiment [2] was 1 scFv per Spike 8 protomer (2:2 complex).

B3: scFv 2D9 (single-chain variable fragment of mouse monoclonal antibody 2D9) (scFv, V domains shown)
VH: QVQLKQSGPGLVQPSQSLSITCTVSGFSLTSYGVHWVRQSPGKGLEWLGVIWSGGSTDYNAAFISRLSISKDNSKSQVFFKMNSLQANDTAIYYCARNSLLDAMDYWGQGTSVTVSS
VL: SIVMTQTPKFLLVSAGDRVTITCKASQSVSNAVAWYQQKPGQSPKLLIYYASNRYTGVPDRFTGSGYGTDFTFTISTVQAEDLAVYFCQQDYSSPLTFGAGTKLELK
notes: 2D9 kappa chain variable region; GGS(GGGGS)3 linker; 2D9 heavy chain variable region; A thrombin cleavage site stands between the scFv and the C-terminal Twin Strep-tag; source: D. melanogaster Schneider 2 (S2) cells, stably transfected, secreted, purified (StrepTrap HP)
Regarding B3, binding in experiment [1] was put at a Kd of 0.00245 nM.

B4: scFv 2D9, purification tag removed by thrombin (scFv, V domains shown)
VH: QVQLKQSGPGLVQPSQSLSITCTVSGFSLTSYGVHWVRQSPGKGLEWLGVIWSGGSTDYNAAFISRLSISKDNSKSQVFFKMNSLQANDTAIYYCARNSLLDAMDYWGQGTSVTVSS
VL: SIVMTQTPKFLLVSAGDRVTITCKASQSVSNAVAWYQQKPGQSPKLLIYYASNRYTGVPDRFTGSGYGTDFTFTISTVQAEDLAVYFCQQDYSSPLTFGAGTKLELK
notes: 2D9 kappa chain variable region, as in m5; GGS(GGGGS)3 linker; 2D9 heavy chain variable region, as in m5; Same construct as m5 after thrombin digestion; source: D. melanogaster Schneider 2 (S2) cells, stably transfected, secreted, purified (StrepTrap HP); tag removed with thrombin during complex formation; not shown: Twin Strep-tag, C-terminal, cleaved
Consider B4, for which the “stoichiometry N” value in experiment [3] is 1 scFv per Spike 8 protomer (2:2 complex).

Broadly, the Kd is the concentration at which binding is half-saturated. Read a low Kd as higher affinity. The term stoichiometry N denotes a count of units in the complex or per binding partner.

The values above are taken from article PMC8754201, “Structures of Two Human Astrovirus Capsid/Neutralizing Antibody Complexes Reveal Distinct Epitopes and Inhibition of Virus Attachment to Cells” (Journal of Virology, 2021).
